Data on 2 substances can be found in patent US20200000929A1.

The target of the assay is NPY2 receptor on HEK293/hNPY2R cells (human) (UniProt P49146). Put plainly: cell-based or functional assay.
NPY2 receptor on HEK293/hNPY2R cells (human), sequence (P49146 whole entry): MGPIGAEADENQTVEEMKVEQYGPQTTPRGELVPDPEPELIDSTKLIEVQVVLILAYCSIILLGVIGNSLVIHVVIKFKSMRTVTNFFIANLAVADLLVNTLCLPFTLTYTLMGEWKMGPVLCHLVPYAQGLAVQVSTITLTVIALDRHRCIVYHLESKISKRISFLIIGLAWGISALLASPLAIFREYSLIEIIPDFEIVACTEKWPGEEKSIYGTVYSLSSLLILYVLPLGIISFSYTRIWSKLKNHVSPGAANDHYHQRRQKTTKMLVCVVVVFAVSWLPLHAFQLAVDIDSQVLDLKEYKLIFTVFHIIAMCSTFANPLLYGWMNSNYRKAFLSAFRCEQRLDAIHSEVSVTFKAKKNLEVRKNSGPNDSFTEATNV

PYY(3-36) wild-type (peptide; modification not given), sequence (chain, as listed by the source): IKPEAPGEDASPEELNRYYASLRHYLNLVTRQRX

“PYY(3-36) wild-type (peptide; modification not given)”: the EC50 [nM], day 1, cAMP assay (inhibition of Forskolin stimulated cAMP accumulation in HEK293/hNPY2R cells) came out at 0.09 nM and the EC50 [nM], day2, cAMP assay (inhibition of Forskolin stimulated cAMP accumulation in HEK293/hNPY2R cells) turned out to be 0.1 nM.

Consider “moPYY, Y2receptor specific modified analog of PYY(3-36): Ac-Ile-Lys-Pqa-Arg-His-Tyr-Leu-Asn-Trp-Val-Thr-Arg-Gln-(NMe)-Arg-Tyr-NH2 (peptide)”, for which the EC50 [nM], day 1, cAMP assay (inhibition of Forskolin stimulated cAMP accumulation in HEK293/hNPY2R cells) stood at 0.14 nM and the EC50 [nM], day2, cAMP assay (inhibition of Forskolin stimulated cAMP accumulation in HEK293/hNPY2R cells) amounted to 0.15 nM.
